One assay has as its target myc-epitope tagged APC2 (mouse, UniProt Q8BZQ7 15-837, limits assumed). Put plainly: co-immunoprecipitation from transfected HeLa cells.
For assay [1], the target named is human ROC1, untagged (endogenous in HeLa and Saos-2 cells, or in vitro translated) (human, UniProt P62877 1-108). Briefly: immunopurification of ROC1 immunocomplexes from HeLa cells and protein microsequencing.
Assay [2] deals with T1, human ROC1 fused in-frame with the DNA activation domain of Gal4 (pGAD-ROC1) (yeast; human, UniProt P62877 1-108).
T1 construct: Yeast two-hybrid prey; also called regulator of cullins
Put plainly: yeast two-hybrid; library screen with mouse cullin 4A as bait and FIG. 1A.

The target in assay [3] is T2, HA-epitope tagged human ROC1 (human, UniProt P62877 1-108).
T2 construct: Expressed by transfection in mammalian cells (Saos-2, HeLa, 293T); also called HA-ROC1
Briefly: co-immunoprecipitation with anti-HA from [35S]-methionine labeled transfected cells (FIG. 3A).

In assay [4] the target is T3, ScAPC2 fused in-frame with the GAL4 activation domain (yeast; Saccharomyces cerevisiae, UniProt Q12440 1-853).
T3 construct: also called yeast APC2
T3 sequence (looked up): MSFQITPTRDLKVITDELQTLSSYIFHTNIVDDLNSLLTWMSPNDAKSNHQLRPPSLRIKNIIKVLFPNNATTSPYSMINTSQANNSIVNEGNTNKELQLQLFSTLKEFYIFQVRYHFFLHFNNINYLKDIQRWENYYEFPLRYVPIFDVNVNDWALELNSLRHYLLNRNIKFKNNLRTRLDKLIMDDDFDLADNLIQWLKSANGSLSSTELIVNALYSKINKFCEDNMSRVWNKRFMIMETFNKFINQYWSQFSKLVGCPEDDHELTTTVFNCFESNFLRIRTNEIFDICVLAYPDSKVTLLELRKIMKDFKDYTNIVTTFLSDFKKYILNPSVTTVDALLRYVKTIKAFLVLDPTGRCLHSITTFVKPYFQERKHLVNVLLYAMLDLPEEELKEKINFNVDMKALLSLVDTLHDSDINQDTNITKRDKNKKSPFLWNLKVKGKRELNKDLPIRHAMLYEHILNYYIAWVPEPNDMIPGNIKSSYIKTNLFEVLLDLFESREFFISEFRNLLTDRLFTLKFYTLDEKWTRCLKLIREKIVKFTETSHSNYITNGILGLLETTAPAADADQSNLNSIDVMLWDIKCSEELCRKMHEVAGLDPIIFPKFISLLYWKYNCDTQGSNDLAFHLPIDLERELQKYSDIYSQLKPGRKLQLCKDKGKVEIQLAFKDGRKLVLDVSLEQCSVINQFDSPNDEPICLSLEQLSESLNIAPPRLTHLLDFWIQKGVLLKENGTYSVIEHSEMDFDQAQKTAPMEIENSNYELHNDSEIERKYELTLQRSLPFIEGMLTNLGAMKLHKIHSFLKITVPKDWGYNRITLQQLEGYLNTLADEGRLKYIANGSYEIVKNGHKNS
Put plainly: yeast two-hybrid (FIG. 5D).

Assay [5] addresses T4, mouse APC2 fused to the Gal4 DNA binding domain (yeast; mouse, UniProt P04386 1-147; Q8BZQ7 15-837, limits assumed).
T4 construct: also called GAL4BD-APC2
Briefly: yeast two-hybrid, -LWH medium with 5 mM 3-AT (FIG. 4E).

Assay [6] has as its target T5, CUL-C (ORF YJL047c) fused in-frame with the Gal4 DNA binding domain (pGBT8) (yeast; Saccharomyces cerevisiae, UniProt P04386 1-147; P47050 1-842). Briefly: yeast two-hybrid (FIG. 5D).
The target of assay [7] is T6, CDC53 fused in-frame with the Gal4 DNA binding domain (pGBT8-CDC53) (yeast; Saccharomyces cerevisiae, UniProt P04386 1-147; Q12018 1-815). Put plainly: yeast two-hybrid (FIG. 5D).
Assay [8] has as its target T7, CUL-B (ORF YGR003w) fused in-frame with the Gal4 DNA binding domain (pGBT8) (yeast; Saccharomyces cerevisiae, UniProt P04386 1-147; P53202 1-744). Put plainly: yeast two-hybrid (FIG. 5D).
Assay [9] addresses T5, CUL-C (ORF YJL047c) fused in-frame with …. Briefly: yeast two-hybrid, histidine reporter (FIG. 5D).
Assay [10] has as its target T6, CDC53 fused in-frame with the Gal4 DNA …. Put plainly: yeast two-hybrid, histidine reporter (FIG. 5D).
The target in assay [11] is T7, CUL-B (ORF YGR003w) fused in-frame with …. Put plainly: yeast two-hybrid, histidine reporter (FIG. 5D).

Chain of myc-epitope tagged APC2 (Q8BZQ7 15-837 limits assumed): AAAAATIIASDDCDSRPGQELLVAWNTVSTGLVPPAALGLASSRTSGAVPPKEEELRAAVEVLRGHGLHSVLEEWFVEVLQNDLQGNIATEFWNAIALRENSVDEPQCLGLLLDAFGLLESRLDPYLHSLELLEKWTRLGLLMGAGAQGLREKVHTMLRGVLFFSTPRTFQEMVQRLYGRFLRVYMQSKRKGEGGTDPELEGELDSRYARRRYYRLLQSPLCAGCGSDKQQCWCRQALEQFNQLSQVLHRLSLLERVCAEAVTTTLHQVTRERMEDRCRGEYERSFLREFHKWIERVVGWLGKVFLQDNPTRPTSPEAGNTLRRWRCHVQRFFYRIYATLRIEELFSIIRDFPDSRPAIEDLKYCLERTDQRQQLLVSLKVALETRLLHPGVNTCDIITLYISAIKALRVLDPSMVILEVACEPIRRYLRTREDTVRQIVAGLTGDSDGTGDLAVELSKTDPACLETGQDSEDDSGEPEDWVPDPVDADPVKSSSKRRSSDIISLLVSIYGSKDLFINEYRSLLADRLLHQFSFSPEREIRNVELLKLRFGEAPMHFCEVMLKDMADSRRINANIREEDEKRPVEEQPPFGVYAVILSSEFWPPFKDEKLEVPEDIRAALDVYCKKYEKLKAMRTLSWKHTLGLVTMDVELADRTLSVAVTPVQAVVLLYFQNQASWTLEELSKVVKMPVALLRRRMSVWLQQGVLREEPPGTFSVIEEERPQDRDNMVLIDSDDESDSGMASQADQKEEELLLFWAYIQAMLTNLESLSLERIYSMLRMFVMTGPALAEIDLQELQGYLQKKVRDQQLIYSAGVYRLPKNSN
Chain of human ROC1, untagged (endogenous in HeLa and Saos-2 cells, or in vitro translated) (P62877 whole entry, the tested form may be a part): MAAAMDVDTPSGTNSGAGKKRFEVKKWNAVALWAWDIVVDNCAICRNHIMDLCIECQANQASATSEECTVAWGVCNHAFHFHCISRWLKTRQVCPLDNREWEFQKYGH
T2 sequence (P62877 whole entry): as the sequence (P62877 whole entry, the tested form may be a part) above
T1 sequence (P62877 whole entry, the tested form may be a part): as above

B1: HA tagged human ROC2 (other, not shown: small tags and cut ends)
chain: ADVEDGEETCALASHSGSSGSTSGGDKMFSLKKWNPVAMWSWDVECDTCAICRVQVMDACLRCQAENKQEDCVVVWGECNHSFHNCCMSLWVKQNNRCPLCQQDWVVQRIGK
notes: Transfected protein migrates as a doublet; also called HA-ROC2
With B1, in the assay with myc-epitope tagged APC2, the binding result is recorded as “no binding”.

B2: human CUL2, endogenous in HeLa cells (other, UniProt Q13617 1-745, looked up)
chain: MSLKPRVVDFDETWNKLLTTIKAVVMLEYVERATWNDRFSDIYALCVAYPEPLGERLYTETKIFLENHVRHLHKRVLESEEQVLVMYHRYWEEYSKGADYMDCLYRYLNTQFIKKNKLTEADLQYGYGGVDMNEPLMEIGELALDMWRKLMVEPLQAILIRMLLREIKNDRGGEDPNQKVIHGVINSFVHVEQYKKKFPLKFYQEIFESPFLTETGEYYKQEASNLLQESNCSQYMEKVLGRLKDEEIRCRKYLHPSSYTKVIHECQQRMVADHLQFLHAECHNIIRQEKKNDMANMYVLLRAVSTGLPHMIQELQNHIHDEGLRATSNLTQENMPTLFVESVLEVHGKFVQLINTVLNGDQHFMSALDKALTSVVNYREPKSVCKAPELLAKYCDNLLKKSAKGMTENEVEDRLTSFITVFKYIDDKDVFQKFYARMLAKRLIHGLSMSMDSEEAMINKLKQACGYEFTSKLHRMYTDMSVSADLNNKFNNFIKNQDTVIDLGISFQIYVLQAGAWPLTQAPSSTFAIPQELEKSVQMFELFYSQHFSGRKLTWLHYLCTGEVKMNYLGKPYVAMVTTYQMAVLLAFNNSETVSYKELQDSTQMNEKELTKTIKSLLDVKMINHDSEKEDIDAESSFSLNMNFSSKRTKFKITTSMQKDTPQEMEQTRSAVDEDRKMYLQAAIVRIMKARKVLRHNALIQEVISQSRARFNPSISMIKKCIEVLIDKQYIERSQASADEYSYVA
notes: also called cullin 2
On to B2, for which the binding result in assay [1] is given as “binds”.

B3: full-length mouse cullin 4A fused in frame with the DNA-binding domain of Gal4 (other, yeast;mouse, UniProt P04386 1-147, looked up)
chain: MKLLSSIEQACDICRLKKLKCSKEKPKCAKCLKNNWECRYSPKTKRSPLTRAHLTEVESRLERLEQLFLLIFPREDLDMILKMDSLQDIKALLTGLFVQDNVNKDAVTDRLASVETDMPLTLRQHRISATSSSEESSNKGQRQLTVSMADEGPRKGSVSALMGRTNGLTKPAALAGGPAKPGGTGGSRKLVIKNFRDRPRLPDNYTQDTWRKLHEAVKAIQSSTSIRYNLEELYQAVENLCSHKVSPTLYKQLRQVCEDHVQAQILPFREDSLDSVLFLKKINTCWQDHCRQMIMIRSIFLFLDRTYVLQNSMLPSIWDMGLELFRNHIISDRMVQSKTIDGILLLIGRERSGEAVDRSLLRSLLSMLSDLQVYKDSFELKFLEETNCLYAAEGQRLMQDREVPEYLNHVSKRLEEEADRVITYLDHSTQKPLIACVEKQLLGEHLTAILQKGLEHLLDENRVPDLTQMYQLFSRVKGGQHALLQHWSEYIKTFGTTIVINPEKDKDMVQDLLDFKDKVDHVVEVCFQRNERFINLMKESFETFINKRPNKPAELIAKHVDSKLRAGNKEATDEELERILDKIMILFRFIHGKDVFEAFYKKDLAKRLLVGKSASVDAEKSMLSKLKHECGAAFTSKLEGMFKDMELSKDIMVHFKQHMQNQSAPGPIDLTVNILTMGYWPTYTPMEVHLPPEMVRLQEVFKTFYLGKHSGRKLQWQTTLGHAVLKADFKEGKKEFQVSLFQTLVLLMFNEGDGFSFEEIKMATGIEDSELRRTLQSLACGKARVLIKSPKGKEVEDGDKFIFNADFKHKLFRIKINQIQMKETVEEQVSTTERVFQDRQYQIDAAIVRIMKMRKTLGHNLLVSELYNQLKFPVKPGDLKKRIESLIDRDYMERDKDSPNQYHYVA
notes: Yeast two-hybrid bait, also used for the library screen; also called mouse CUL4A; CUL4A
Turning to B3, the binding result in assay [2] is on record as “binds”.

B4: myc-epitope tagged mouse CUL4A (other, UniProt Q3TCH7 1-759, looked up, not shown: small tags and cut ends)
chain: MADEGPRKGSVSALMGRTNGLTKPAALAGGPAKPGGTGGSRKLVIKNFRDRPRLPDNYTQDTWRKLHEAVKAIQSSTSIRYNLEELYQAVENLCSHKVSPTLYKQLRQVCEDHVQAQILPFREDSLDSVLFLKKINTCWQDHCRQMIMIRSIFLFLDRTYVLQNSMLPSIWDMGLELFRNHIISDRMVQSKTIDGILLLIGRERSGEAVDRSLLRSLLSMLSDLQVYKDSFELKFLEETNCLYAAEGQRLMQDREVPEYLNHVSKRLEEEADRVITYLDHSTQKPLIACVEKQLLGEHLTAILQKGLEHLLDENRVPDLTQMYQLFSRVKGGQHALLQHWSEYIKTFGTTIVINPEKDKDMVQDLLDFKDKVDHVVEVCFQRNERFINLMKESFETFINKRPNKPAELIAKHVDSKLRAGNKEATDEELERILDKIMILFRFIHGKDVFEAFYKKDLAKRLLVGKSASVDAEKSMLSKLKHECGAAFTSKLEGMFKDMELSKDIMVHFKQHMQNQSAPGPIDLTVNILTMGYWPTYTPMEVHLPPEMVRLQEVFKTFYLGKHSGRKLQWQTTLGHAVLKADFKEGKKEFQVSLFQTLVLLMFNEGDGFSFEEIKMATGIEDSELRRTLQSLACGKARVLIKSPKGKEVEDGDKFIFNADFKHKLFRIKINQIQMKETVEEQVSTTERVFQDRQYQIDAAIVRIMKMRKTLGHNLLVSELYNQLKFPVKPGDLKKRIESLIDRDYMERDKDSPNQYHYVA
notes: also called myc-mCUL4A; cullin 4A
Take B4: the binding result in [3] is recorded as “binds”.

B5: ScROC1 fused in-frame with the Gal4 DNA binding domain (pGBT8-ScROC1) (other, yeast;Saccharomyces cerevisiae, UniProt P04386 1-147, looked up)
chain: MKLLSSIEQACDICRLKKLKCSKEKPKCAKCLKNNWECRYSPKTKRSPLTRAHLTEVESRLERLEQLFLLIFPREDLDMILKMDSLQDIKALLTGLFVQDNVNKDAVTDRLASVETDMPLTLRQHRISATSSSEESSNKGQRQLTVSMSNEVDRMDVDEDESQNIAQSSNQSAPVETKKKRFEIKKWTAVAFWSWDIAVDNCAICRNHIMEPCIECQPKAMTDTDNECVAAWGVCNHAFHLHCINKWIKTRDACPLDNQPWQLARCGR
Take B5: the binding result in [4] is given as “binds”.

B6: full length human ROC2 fused in-frame with the yeast Gal4 DNA activation domain (other, not shown: large carriers)
chain: MFSLKKWNPVAMWSWDVECDTCAICRVQVMDACLRCQAENKQEDCVVVWGECNHSFHNCCMSLWVKQNNRCPLCQQDWVVQRIGK
notes: Yeast two-hybrid prey
On to B6, for which the binding result in assay [5] is listed as “no binding”.

B7: ScROC1 fused in-frame with the GAL4 activation domain (pGAD-ScROC1) (other, Saccharomyces cerevisiae, UniProt Q08273 1-121, looked up, not shown: large carriers)
chain: MSNEVDRMDVDEDESQNIAQSSNQSAPVETKKKRFEIKKWTAVAFWSWDIAVDNCAICRNHIMEPCIECQPKAMTDTDNECVAAWGVCNHAFHLHCINKWIKTRDACPLDNQPWQLARCGR
notes: also called yeast ROC1; ROC1p
In the case of B7, the binding result in assay [6], in [7] and in [8] was “binds” in each case.

B8: ScAPC11 fused in-frame with the GAL4 activation domain (pGAD) (other, Saccharomyces cerevisiae, UniProt Q12157 1-165, looked up, not shown: large carriers)
chain: MKVKINEVHSVFAWSWHIPSTSDEDAANNDPIGNDEDEDVCGICRASYNGTCPSCKFPGDQCPLVIGLCHHNFHDHCIYRWLDTPTSKGLCPMCRQTFQLQKGLAINDAHVQKFVEIVSRRREEMIEEGVAEEFVDFDEPIRQNTDNPIGRQQVDTILDEDFLLR
notes: also called yeast APC11
On to B8, for which the binding result in assay [9] is “binds”; in [10] it was “no binding”; in assay [11], “no binding”.

For the origin of these results see patent publication EP1988165A1 (THE UNIVERSITY OF NORTH CAROLINA AT CHAPEL HILL, dated 2008).
